Measured values published in publication PMC11239853, “Molecular and structural basis of the chromatin remodeling activity by Arabidopsis DDM1” (Nature Communications, 2024).

Legend:
[1] = target: T1, Arabidopsis thaliana DECREASE IN DNA …ON 1 (DDM1), full length (Arabidopsis thaliana, UniProt Q9XFH4 1-764); experiment: cross-linking; nucleosomes (0.2 µM) with AtDDM1 (0.4 µM), 60 mM NaCl, 1 mM MgCl2, 1 mM ADP, pH 7.5, 25 °C; 1.6 mM DSS-H12/D12 (lysine-lysine), LC-MS/MS, xQuest/xProphet; settings: both partners purified
T1 construct: DDM1, Snf2-type chromatin remodeling factor, Arabidopsis thaliana, full length; His6-SUMO removed with HRV 3C protease; also called AtDDM1; source: E. coli BL21(DE3) Codon(+) RIL, purified (Ni-NTA, RESOURCE Q flow-through, RESOURCE S, Superdex 200); not shown: His6, N-terminal, cleaved; SUMO, N-terminal, cleaved

[2] = target: T2, Arabidopsis thaliana histone H3.1 (Arabidopsis thaliana, UniProt P59226 1-136); experiment: as above; settings: both partners purified
T2 construct: His6 tag removed with thrombin (pET-15b); also called AtH3.1; source: E. coli BL21(DE3) Codon(+) RIL, purified (Ni-NTA and SP cation exchange, denaturing); in reconstituted nucleosomes; not shown: His6, N-terminal, cleaved

T1 sequence (Q9XFH4 whole entry): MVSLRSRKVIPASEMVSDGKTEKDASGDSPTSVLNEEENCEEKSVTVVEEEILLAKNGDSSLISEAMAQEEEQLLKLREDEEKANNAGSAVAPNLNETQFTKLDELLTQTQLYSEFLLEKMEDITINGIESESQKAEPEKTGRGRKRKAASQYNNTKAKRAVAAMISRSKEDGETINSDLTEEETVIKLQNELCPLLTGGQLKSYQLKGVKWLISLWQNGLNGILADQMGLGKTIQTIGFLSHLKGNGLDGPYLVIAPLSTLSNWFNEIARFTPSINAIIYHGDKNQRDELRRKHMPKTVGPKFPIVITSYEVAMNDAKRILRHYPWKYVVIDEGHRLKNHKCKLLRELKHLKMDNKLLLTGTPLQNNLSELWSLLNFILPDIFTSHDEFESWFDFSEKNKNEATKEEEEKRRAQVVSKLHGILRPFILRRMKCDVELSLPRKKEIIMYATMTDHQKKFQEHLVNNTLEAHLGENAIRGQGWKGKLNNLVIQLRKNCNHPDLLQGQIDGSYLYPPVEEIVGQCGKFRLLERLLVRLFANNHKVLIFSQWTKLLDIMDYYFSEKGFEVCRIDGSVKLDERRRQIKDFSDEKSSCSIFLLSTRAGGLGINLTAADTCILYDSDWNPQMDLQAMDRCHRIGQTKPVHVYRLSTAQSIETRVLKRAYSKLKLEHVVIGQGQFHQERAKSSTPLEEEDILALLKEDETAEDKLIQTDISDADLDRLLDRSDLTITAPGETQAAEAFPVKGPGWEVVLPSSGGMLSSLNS

binding result [1]: binds
binding result [2]: binds
B1: Arabidopsis thaliana histone H2A.W.6 (natural protein)
chain: MESTGKVKKAFGGRKPPGAPKTKSVSKSMKAGLQFPVGRITRFLKKGRYAQRLGGGAPVYMAAVLEYLAAEVLELAGNAARDNKKSRIIPRHLLLAIRNDEELGKLLSGVTIAHGGVLPNINSVLLPKKSATKPAEEKATKSPVKSPKKA
notes: His6 tag removed with thrombin (pET-15b); also called AtH2A.W; AtH2A.W.6; source: E. coli BL21(DE3) Codon(+) RIL, purified (Ni-NTA and SP cation exchange, denaturing); in reconstituted nucleosomes; not shown: His6, N-terminal, cleaved
